# Reference: US20240092920A1 (KEYMED BIOSCIENCES, published 2024)
# T1: recombinant protein of human IL-4Rα extracellular region (human, UniProt P24394 26-232)
# T1 construct: range 26-232; Made in HEK293-6E cells, purified on nickel chelate; Used biotin-labeled on SA probes in the Fortebio assays and unlabeled as ELISA coat; also called hIL-4Rα; IL-4Rα recombinant protein
# T1 sequence: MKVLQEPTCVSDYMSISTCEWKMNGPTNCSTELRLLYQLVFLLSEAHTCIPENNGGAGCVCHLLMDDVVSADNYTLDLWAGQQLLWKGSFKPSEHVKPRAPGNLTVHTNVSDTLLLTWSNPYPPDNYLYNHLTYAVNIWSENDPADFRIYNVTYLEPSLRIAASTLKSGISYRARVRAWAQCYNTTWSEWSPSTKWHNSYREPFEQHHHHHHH
# Target: T1, recombinant protein of human IL-4Rα …
# Assay: BLI (Fortebio), biotin-labeled hIL-4Rα on SA probe, antibody 50-3.125 ug/ml
# Protocol: PBS is added to any column of the 96-well plate, 100 ul/well, and the 96-well plate is placed in the probe holder cassette. When taking the probe, be careful to completely hang it on the holder to prevent the probe from touching the holder. The immobilized biotin-labeled hIL-4Rα is diluted to 5 ug/ml with PBS; a new 96-well plate is taken, and the diluted immobilized material is added column by column, 100 ul/well. […] A new 96-well plate is taken, and PBS is added to columns 1 and 2, 100 ul/well (the same buffer for both baseline and dissociation); the diluted immobilized material is added to column 3; the analyte diluted according to the series is added to column 4; 10 mM HCl (pH 1.9) is added to column 11; and PBS is added to column 12. The SA probe binds very strongly to the immobilized biotin material. When regenerated, the immobilized material is still bound to the probe, so it can be reused after immobilizing only once. Then the experimental method is set up in the Fortebio software, and then the experimental program is run for detection.
Binder,Kd [nM],koff [s⁻¹],kon [M⁻¹ s⁻¹]
"Clone 24G10 (antibody, V domains shown, Chimeric IgG: mouse variable regions on human heavy and light chain constant regions (section 6)) VH: EVKLVESGGGLVKPGGSLKLSCAASGFTFSRYAMSWVRQTPEKRLEWVATISSGGSYTNYSDSVKGRFTISRDNVKNTLYLQMSSLKSEDSAMYYCARATARATEFAYWGQGTLVTVSA VL: DIQMTQSTSSLSASLGDRVTISCRASQDISNYLNWYQQKPDGTVKLLIYYTSRLYSGVPSRFSGSGSGTDYSLTISNLEQEDIATYFCQQGNTLPPTFGGGTKLEI",0.94,2.37e-05,25300
"Clone 25D6 (antibody, V domains shown, Chimeric IgG: mouse variable regions on human heavy and light chain constant regions (section 6)) VH: QVQLQQSGAELVKPGASVKMSCKASVNTFTGYNMHWVKQTPGQGLEWIGGLHPGNGDTSYNQKFKGKATLTADKSSNTAYMQLSSLTSEDSAVYYCALTTAGRAWFAYWGQGTLVTVSA VL: DIQMTQSTSSLSASLGDRVTISCRASQDISNYLNWYQQKPDGTVKLLIYYTSRLHSGVPSRFSGSGSGTDYSLTISNLEQEDIATYFCQQGNTLPWTFGGGTKLEIK",5.9,0.000157,26500
"Clone 1D8 (antibody, V domains shown, Chimeric IgG: mouse variable regions on human heavy and light chain constant regions (section 6)) VH: QVQLQQSGAELVKPGASVKMSCTATGNIFTGYNMHWIKQTPGQGLEWIGGLHPGNGDTSYNQKFKGRATLTADKSSSSAYMQLSSLTSEDSAVYYCALTTAGRAWFAYWGQGTLVTVSA VL: DIQMTQTTSSLSASLGDRVTISCRASQDISNYLNWYQQKPDGTVKLLIYYTSRLHSGVPSRFSGSGSGTDYSLTISNLEQEDIATYFCQQGNTLHTFGGGTKLEIK",8.06,0.000566,70100
"Clone 36F4 (antibody, V domains shown, Chimeric IgG: mouse variable regions on human heavy and light chain constant regions (section 6)) VH: QVQLQQSGAELVKPGASVKMSCKASVNIFTGYNMHWVKQTPGQGLEWIGGLHPGNGDTSYNQKFKDKATLTADRSSNTAYMQLSSLTSEDSAVYYCALTTAGRAWFAYWGQGTLVTVSA VL: DIKMTQSTSSLSASLGDRVTISCRASQDISNYLNWYQQKPDGTVKLLIYYTSRLHSGVPSRFSGSGSGTDYSLTISNLEQEDIATYFCQQGNTLPPWTFGGGTKLEIK",1.8,9.37e-05,50900
"Clone 35A7 (antibody, V domains shown, Chimeric IgG (section 6)) VH: QVQLKQSGAELVKPGASVKMSCTASGNIFSGYNMHWIKQTPGQGLEWIGGLHPGNGDTSYNQKFKGKATLTADKSSNTAYMQLSSLTSEDSAVYYCALTTAGRAWFAYWGQGTLVTVSA VL: DIQMNQSTSSLSASLGDRVTISCRASQDISNYLNWYQQKPDGTIKLLIYYTSRLYSGVPSRFSGSGSGTDYSLTISNLEEEDIATYFCQQGNTIPYTFGGGTKLEIK",< 0.001,< 1e-07,24700
"Clone 25G9 (antibody, V domains shown, Chimeric IgG: mouse variable regions on human heavy and light chain constant regions (section 6)) VH: EVQLKESGAELVKPGASVKMSCKASVNIFTGYNMHWVKQTPGQGLEWIGGLHPGNGDTSYNQKFKDKATLTADRSSNTAYMQLSSLTSEDSAVYYCALTTAGRAWFAYWGQGTLVTVSA VL: DIQMTQSTSSLSASLGDRVTISCRASQDISNYLNWYQQKPDGTVKLLIYYTSRLHSGVPSRFSGSGSGTDYSLTISNLEQEDIATYFCQQGNTLPWTFGGGTRLEIK",< 0.001,< 1e-07,37900
"Clone 1A6 (antibody, V domains shown, Chimeric IgG: mouse variable regions on human heavy and light chain constant regions (section 6)) VH: QVQLQQSGTELVKPGASVKMSCKASVNTFTGYNMHWIKQTPGQGLEWIGGLHPGNGDSSYNQKFKGRATLTADKSSNTAYMQLSSLTSEDSAVYYCALTTAGRAWFPYWGQGTLVTVSA VL: DIQMTQTTSSLSASLGDRVTISCRASQDISNYLNWYQQKPDGTVKLLIYYTSRLHSGVPSRFSGSGSGTDYSLTISNLEQEDIATYFCQQGNTLPPTFGGGTKLEIK",11.3,0.000602,53000
"Clone 35D5 (antibody, V domains shown, Chimeric IgG: mouse variable regions on human heavy and light chain constant regions (section 6)) VH: QVQLKQSGAELVKPGASVKMSCKASVNTFTGYNMHWVKQTPGQGLEWIGGLHPGNGDTSYNQKFKGKATLTADKSSNTAYMQLSSLTSEDSAVYYCALTTAGRAWFAYWGQGTLVTVSA VL: DIQMTQSTSSLSASLGDRVTISCRASQDISNYLNWYQQKPDGTVKLLIYYTSRLHSGVPSRFSGSGSGTDYSLTISNLEQEDIATYFCQQGNTLPWTFGGGTKLEIK",1.3,5.05e-05,38700

# The next lines start with the values.
Kd [nM],koff [s⁻¹],kon [M⁻¹ s⁻¹],Binder
8.9,0.000262,29300,"Clone 1H9 (antibody, V domains shown, Chimeric IgG: mouse variable regions on human heavy and light chain constant regions (section 6)) VH: QVQLQQSGAELVKPGASVKMSCKASVNTFAGYNMHWVKQTPGQGLEWIGGLHPGNGDTSYNQKFKGKATLTADKSSNTAYMQLSSLTSEDSAVYYCALTTAGRAWFAYWGQGTLVTVSA VL: DIQMIQSTSSLSASLGDRVTISCRASQDISNYLNWYQQKPDGTVKLLIYYTSRLHSGVPSRFSGSGSGTDYSLTISNLEQEDIATYFCQQGNTLPWTFGGGTKLEIK"
< 0.001,< 1e-07,29000,"Clone 34A2 (antibody, V domains shown, Chimeric IgG: mouse variable regions on human heavy and light chain constant regions (section 6)) VH: EVQLQQSGAELVKPGASVKMSCKASVNIFTSYNMHWVKQTPGQGLEWIGGLHPGNGDTSYNQNFKGKATLTADKSSSTAYMQVSNLTSEDSAVYYCVLTTAGRAWFAYWGQGTLVTVSA VL: DIQMTQSTSSLSASLGDRVTISCRASQDISNYLNWYQQKPDGTVKLLIYYTSRLHSGVPSRFSGSGSGTDYSLTISNLEQEDIATYFCQQGNTLPWTFGGGTKLEIK"
6.6,0.000176,26900,"Clone 34H11 (antibody, V domains shown, Chimeric IgG: mouse variable regions on human heavy and light chain constant regions (section 6)) VH: QVQLQESGAELVKPGASVKMSCKASVNTFTGYNMHWVKQTPGQGLEWIGGLHPGNGDTSYNQKFKGKATLTADKSSNTAYMQLSSLTSEDSAVYYCALTTAGRAWFAYWGQGTLVTVSA VL: DIQMTQTTSSLSASLGDRVTISCRASQDISNYLNWYQQKPDGTVKLLIYYTSRLHSGVPSRFSGSGSGTDYSLTISNLEQEDVATYFCQQGNTLPWTFGGGTKLEIK"
1.9,6.28e-05,33000,"Clone 31B9 (antibody, V domains shown, Chimeric IgG: mouse variable regions on human heavy and light chain constant regions (section 6)) VH: EVQLQQSGAELVKPGASVKMSCKASVNIFTGYNMHWVKQTPGQGLEWIGGLHPGNGDTSYNQKFKDKATLTADRSSNTAYMQLSSLTSEDSAVYYCALTTAGRAWFAYWGQGTLVTVSA VL: DIQMTQSTSSLSASLGDRVTISCRASQDISNYLNWYQQKPDGTVKLLIYYTSRLHSGVPSRFSGSGSGTDYSLTISNLEQEDIATYFCQQGNTLPWTFGGGTKLEIK"
5.27,0.000377,71600,"Clone 2H1 (antibody, V domains shown, Chimeric IgG: mouse variable regions on human heavy and light chain constant regions (section 6)) VH: QVQLQQSGTELVKPGASVKMSCKASVNTFTGYNMHWIKQTPGQGLEWIGGLHPGNGDSSYNQKFKGRATLTADKSSNTAYMQLSSLTSEDSAVYYCALTTAGRAWFPYWGQGTLVTVSA VL: DIQMIQSTSSLSASLGDRVTISCRASQDISNYLNWYQQKPDGTVKLLIYYTSRLHSGVPSRFRGSGSGTDYSLTISNLEQEDIATYFCQQGNTLPLTFGAGTKLELK"
